The data set in a line: protease stability score; higher = more stable; yeast display proteolysis, trypsin and chymotrypsin.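 Also: relative to predicted unfolded state with 0 unfolded-like and 1 meaning tenfold more protease.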
For the sequence “HEEEEIVHRFVEDWFRHLKTGDFRSLFQLLDPHTRTDINGKSIHGRDTIMTEIIENMIRLGVNHMEVRIHHISVVDGQAHIDIWLIIRVNGKEQAHHVHILAQKINGKWFLKDIRFE”, the protease stability score came out at 1.5.
Take “DHHRKETEELAELFFENLLTGNWEIHEHLLDPDVKLEQGDKINVGRESYSEWLEYVKKHIRIRDWKIRHVHVFNGRVHLETEVHMEYGDKHHVVDMHISIDVINGRFKTVRIEIK”: the protease stability score came to 2.1.
In the case of “SEDEESSKFALELMWHWEKTGDEKAISELADPHTLNHVNGVDLHGRELVIHFIHHMRIKRVHLKRIEIRMIGDYLDIRIHGRVDGEINGKDRDFHTDLVLIMRKVDGRWFVKSMSVIII” it was 1.45.
“DHKDELAHRLVEHILKLLLTGDEEHWYELLDPNVRIHINGRNSVGREEALKVIQFFWELLGVKHIELKEVRFQGDKVHSDTRLDINGVKSRVRIEVIIINGRIDEVRIDIR” showed a protease stability score of 2.25.
In the case of “DEDHHESHRALTELFKDLLTGDWKSSKELADPHARVDINGKEYHGREEMERFFKELWERLGIDHIDVKHIEIQGNKVISHLEIHVNGRTFNLIIIIDKVNGRWIIHSMKMDTE” it was 0.968.
Under “DDVHEDATRAIKILKHNLETGDEDKLMTMMDPNVRFEDGNKHAHGREQTVQVLLEIIEKLGVSKFSHEIKDLKIVDGKLHLHGTLKVDGKTVDLEVVSLKINGRWLIKSIHLH” stands 1.19; under “DEDEHMRRIAYRLMWEVWHTGNFEELISLVDPHARVDIDGVELHGRENFTHELHERLRRMGVETQFRLRKVESYNGVVHIHTELEITIDGRNHKIDFIFYAHKINGRWRMKSEEYR”, 1.8; under “DSLHEKVEIMAHLLVEIIRTGNEEDWRRYVDPNVRIRIGDKDLHGREEAFRVVREIRIIVHDIKIRSLDVQGDKVESDVEVDVEFRIGDKVNRIHTRFRLIWTKVDGRWINESMSIE”, 2.61.
In the case of “DEDEEEMRRVVELLVRDHFTGNFEKLKDLFDPNAKSDVDGVSMVGREWLEFLKRYLGADHIEVRVRHEDYYGNKVHFHLEIISRYGDKEIHVDTEMVIDKVDGRWYVRETRFK” it was 0.854; in that of “SEIHELAILVLKWLLDSMSTGDEESLRRLLDPHTRIHIDGKDLHGRHFLERILQEIRHEVKEYHIRDVRDINGVVTLDAHVRGNEYFDGRNHEHRTDTRLIIDKINGRWRIRELKFE”, 1.12; in that of “DEEKEMNRHFLEHLKTAYETGDEDSIIKNIDPHYRIIVGDKDLIGMEHVKKWLHHARIHEIHPRRLEVQGNKITNDIHVVGEVNGVLRSTDQIWYLLKVDGRWLIESIEIK”, 1.11.
Take “SEIEHVVKRAIKIFIEVLETGDWELMWRLLDPHVRIEVGNKEKHGRHTIEEMIRRVDHIHINERQIHDIEIQGDKVHLHIHLNVEERVGDKRLNFEFELHIIAEKVNGRWIVRSVTIK”: the protease stability score is 1.62.
In the case of “DEEQKAADRVNQLHTESMLTGDEDEFKHLADPNTKFLINGVEFHGRDTLHRWLSEIRLHHHHFEVKHLNFYGDFVEVEGHVRLVFHVNGRRIDVSTRVRWIIEKVDGRWYVRQIHIN” it was 1.68; in that of “SEEEEETRKFAHDLVNIHRTGDERKINDLFDPHVRVHIGNKEIVGRELFARWMHEFLLKHGFTEEIRIDDVDLYGNKAHIDGTLIIRINGVEHRHRVELIVNKINGKWLMEYVRVR”, 1.6.
“SEEEELHDEHLKKIYTALLTGDFDTFRNMVDPHVRLDWNGVRLHGREVVVRTMIELGADHIEIKEVSFQGDKVDLHFREKVNGKEFRVRIEKQKFNGQWSISSEHQR”: the protease stability score came to 1.14.
Under “SELEETLKRSYELLSRILETGDEHRLKSLADPHTRMDFNGVEVHGMHLTVQWMKEFGADHEQYEVRIKRLDVQGDKLHSHGLLIIRIFINGRTIDLKIETHMHAEKIDGRWVIREIIWR” stands 1.36; under “SELKNWARIIAERVTDELNTGNEHRLRELFDPNVKIRIDGRDFHGMDTLRRFFEELRITHTHWEHKDMHLIGDKALLHGTLKINILQGDKTHETTFDVRIFVIKVNGRWSYEHMEID”, 1.22; under “DEDERLFEEATRLWSKLVLTGDEKRLEELMDPNVRVVIGDKVFHGREIAVKVVKELRVEHIIIRRWEIIGDKAHIRGESRGIVNGVERVSTLDLTLLKIDGRWIIESIRLE”, 1.09.
The sequence “DEEERRDREWLHRMLHVHHTGDEEMFKRLADPHTLLRVDGKDVHGREEIAHFIRERGYRVEVHARHIEIINGRIDNETTVIVRINGRTIHEETHLHIRKINGKWILTHWHIE” showed a protease stability score of 0.654.
Under “SEEEELSHTMWRLWVHAVRTGDFRMLEHLADPHVRDVRNINGVTTRLVGREEWRRIVEEEIDKYPNMRVEFEDVRDVGNYVHAHTKSHYDGKTVDTRVELLVVDGRISDFKLHIE” stands 1.08; under “DEKEEAARQIMTWLLEVLLTGDERLFEHNADPNVRIDVDGVDLVGMELFRHEVRRIDHMESRMRVRRVTVQGDKVRMEVEIEVTLFINGKEIRHRRESELIVLKIDGRWIIKSTHVK”, 1.56; under “SEEEEIMQRLLELMLQVFKTGDWKSLTDLLDPHVRLRIHQGDKTLHHHGREEFTERLRKLDEHLGVSRIDVRDHDMHEINGVLIIHLELRVNGRKVHVLILAEKIDGRWLLKSMHLVWH”, 1.42.
Under “DEQERAYELALRTIEHDLRTGDEKSLQENADPNTRLLVGDKELVGWELFIKLMREIRIRHIEVRHMEVQGNKLIFDGKVDGEIGDKRVEYETEIILEKVDGQWRIKEKRLH” stands 0.862; under “DEEEHHIKTLLELHWEIWKTGDEDRFRELADPNTKLIVNGREVIGRERVAKVIHDILRHMRFHDFTLERDKIYNGQVDLHGTEYGHINGKNIERTHVFHIVIVNGVLKSIELRIH”, 1.01; under “SEDQEESEKFLKDLIRVILTGNEESLMKLADPHARFHIGDKTYIGWDKWVRMLSERVRDLGIRIEIRVHDFHVYNGVAENDHRHHVHFENHEYNHIMILHDDKINGKWTIRTLVIK”, 1.13.
Under “DEHERDAHRFIEHLWRILATGDEEELRKLFDPDAKHHDENELYHGREKVTKFISHRFKHLGIDHVEFRLTDLEVQGDKVISRILVIQRVNGVEYRIDMLFIFHKINGRWLIKSLEVH” stands 1.36; under “SEIEKLLIDWLEHMVRAHKTGDWQNLLNMLDPHTRLNINGQHNIGRDKLTHLIREEEDRFGVDNIELHLHLEDIDIQGEKVNMKVQRHVNVNGREYTDEVELIIVKINGRWLLESIHVH”, 0.932; under “DDMEEMAKEVFREWFEIVETGDEEKLLKLIDPNTRVDINGQEVHGREDISRITSKLIRELGVKHIRSEVKSFDIVGNKIRVRGLEIRDVGDKHKEIHTHFFIMKIDGKWVITNMHFH”, 1.5.
“DHVEEDARTRLKLFLTHWLTGDEHSTNELFDPNVRIDVNGKIIVGRHVLSEEWSRLGIKHSILHIDHIHIDEDEIHIDGILRLIFENHVLDLRVNLHAEKYDGRWHSSEVQVK” showed a protease stability score of 1.25.
In the case of “DEHDESVRTAWEYYKRVIETGDEDISKKLADPHMKFEFENHSIHGWENIYRELTRLMREMRIHHVEIEHFRVYGDFVEIHIRVDGTVNGRRIITKMDLYITKIDGKWYLHSRRIE” it was 0.543; in that of “SHEEELEEKIARILLEAWITGDEEFLFRLADPNVKLDIKYGDKRHIHIGREELLKWYRHELERFKNMKIVLHDRHIQGEKVHLHLVMHFNGQRIDVRIEVIIINGRIKHIHIEVDEK”, 2.6.
Under “SEDEEELNRVLKELLHAMVTGNEELWSRLVDPNYRVTVGDFRLHGMEEYSRILHEWRVEIREFRITSRTTVDGRIFIDAHFTEEIKQGDKVTFVNTRIRLIMIKVDGRWHVESREIR” stands 0.484; under “DESTENLREFIRVLLHLWETGNEDEFLRMADPNALVYDEHEYDHGWKAWKKLLEQYDVVTSIIPRHIRLIGDKVDIHTNLYMLINGRTVEVHTELLVKKIDGQWRIKFFLIR”, 1.63; under “NEDEKILEEAARLLFKALHTGDETTMLRLLDPNVRLHINGRDLIGREEMDRWWQELGLERISVHLDHLETHYIGNKIEIYIRGTVEFNGVRREIDVHNHALKVNGRWELKNVEIRHR”, 0.893.
Under “DEETEEERKITELSLKAYKTGDEDTLSSLIDPHARFIYNGRHHHGRETASHILRRETERLGVKHIHLKDTEIDDVNGVVDMRIHMMVHYGNKTTELIIILRITKFNGRWIIETIEVRVR” stands 0.691.
“REEEEEVKRNAHITVHILLTGDFHHHSRLFDPHVRSEWNGVELHGMEEDLKWWIELVKHLRFKHFEIHDIRVYDGVADNDINEVIKVNGKDFTFKSSIILIIINGQIRELKFVIN” came in with a protease stability score of 0.073.
The sequence “VEDLREYIRIAEELVKSWITGDWDRLRKLVDPNVRLDVDGVENIGRDHVHRALEEHEKHIRLKDHRIEHIDAVDGKSTMHTRSHFHINGVEHEVNVHMEFVIVNGRVTEMRISIR” returned a protease stability score of 1.02.
In the case of “SEDDHRAHEWFRIVFHWLLTGDEEHFDRYADPHTKVDINGVEFHGREEVRRWIYEIRLKDNRIRSVRAVGEKNESDGHRNGHIGDKHIVTDVEVRLHVVDGRIKSIHIIIH” it was 0.981; in that of “SEEEKHVHRFLSEWTRSLKTGDEQRIVRLLDPTARLFFEGREYHGMETIAHQIVHDIRHHGFTLEVEIQDFHVQGDKAEHDGILIVKVDGKEIHRKLILVVTKIDGRWFLSEVIIK”, 0.923.
Under “SEEEEEWHRLIEHWMRKWLTGDEERLARLADPNVRLEDENHQSHGREEMARFLHEKILKLGVDHTRIRHYRDQGEYLHLDFEVEINGRRVRVKVHVVIIDGVVKELKFHVE” stands 1.19.
In the case of “DEDRESFEEVSRLLMEDIKTGDEDSWKKLADPHDRIVVGDKTSIGMETSIHLLRVLIHHIRFKDSKIKDIHSQGDKLHLETHLHGEVNGVEYHTFSHIVVRKVDGKWHLESVIII” it was 1; in that of “DEDKENAEEAIRRLMEMILTGDEDQIRHMIDPHVRVIINGRDHHGWEELLRFWKEMRIHDVKVHDIKIINGRVNSDTKIVTEIGDFRIELEAHFIFHKFDGRWRVDSVDLR”, 1.18.
On to “DEEEERVIHIMHLFLEHISTGDEDKVKHLMDPNVRVFIGNKQHVGMHEIIKHLREWRIELDDVRTEEVRIQGDKLHLNGRLHVTLEFNGRRIRTTVRTTNIFRKVDGRWILEAIHID”, for which the protease stability score turned out to be 1.58.
Under “DEDKESLTRFWRMWVELNQTGDEDSLLKMFDPHVKIDINGRDLHGRELFAEEHKKFREEMGIDHFEFEIHRFEVQGDKANLDAKVTIRIGDKFHQLDLHIILHKVNGRWVLHSVKIR” stands 1.22; under “DEHEEEAIRMLRLIFFLLHTGDWEVMHELFDPHARFTINGRRIHGMEEWLKFLREIRIEDSDIHVKRIDIQGDKMRIKGVVHLEGNVNGRREHTELHIDVHLEKVNGRWIIRLIEFK”, 2.35.
For the sequence “SEREDITHEFIQKTIKAIHTGDFILLLRLLDPDMQFDIGDKEFIGRERLREFMEEWRVRVKHYEIEHVRLQGDKLETHTHEHREIWIGDKVVHERFDRKIEITKVDGQWAIKRVEII”, the protease stability score was found to be 0.284.
In the case of “DEDEKDTHIWIKILEHIWDTGDEESFERLADPNVRFIQGEKELHGRERLIRFLSKYKNLTFRSEDYHIVNGRALVRITNHVNGRDLEMIIYYEKVNGQWHNKEIELR” it was 1.27.

(Values after the NTF2 design screens of Basanta et al. (2020).)
